# Measured values: patent US20020156112A1, “Endostatin-like angiogenesis inhibition” (priority 2000, published 2002)
# T1: irrelevant FLR-peptide (Homo sapiens, UniProt P15941, R1131P)
# T1 construct: ID No. 2: FLR peptide
# T1 sequence (P15941 with tags, fused parts or gaps R1131P): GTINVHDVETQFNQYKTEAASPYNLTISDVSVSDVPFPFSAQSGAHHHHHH
# B1: endostatin: human recombinant endostatin (Calbiochem 324746), known angiogenesis inhibitor protein, a dimer in its functional form (protein, UniProt P39060 1572-1754, looked up)
# Endostatin: HSHRDFQPVLHLVALNSPLSGGMRGIRGADFQCFQQARAVGLAGTFRAFLSSRLQDLYSIVRRADRAAVPIVNLKDELLFPSWEALFSGSEGPLKPGARIFSFDGKDVLRHPTWPQKSVWHGSDPNGRRLTESYCETWRTEAPSATGQASSLLGGRLLGQSAASCHHAYIVLCIENSFMTASK
# modifications: Endostatin
# B2: angiostatin: human angiostatin, Calbiochem 176700, angiogenesis inhibitor protein (protein)
# chain: YLSECKTGNGKNYRGTMSKTKNGITCQKWSSTSPHRPRFSPATHPSEGLEENYCRNPDNDPQGPWCYTTDPEKRYDYCDILECEEECMHCSGENYDGKISKTMSGLECQAWDSQSPHAHGYIPSKFPNKNLKKNYCRNPDRELRPWCFTTDPNKRWELCDIPRCTTPPPSSGPTYQCLKGTGENYRGNVAVTVSGHTCQHWSAQTPHTHNRTPENFPCKNLDENYCRNPDGKRAPWCHTTNSQVRWEYCKIPSCDSSPVSTEQLAPTAPPELTPVVQDCYHGDGQSYRGTSSTTTTGKKCQSWSSMTPHRHQKTPENYPNAGLTMNYCRNPDADKGPWCFTTDPSVRWEYCNLKKCSGTEA
# Assays:
# [1] = test system: His-tagged GRGDS motif peptide; assay: NTA-Ni agarose pull-down with SDS PAGE of eluate and flow through (Example 2); format: binding; conditions: 0.1 mg/mL protein; imidazole (250 mM) elution
# Method: 200 μL NTA-Ni agarose (Qiagen) were washed 2× with 100 μL ddH20, then with wash buffer A, containing 50 mM NaH2PO4, 300 mM NaCl, and 10 mM imidazole at pH 8.0.
# A synthetic peptide, was dissolved in DMSO then diluted in phosphate buffer to a final concentration of 1 mM. 100 μL of this peptide solution was incubated with the NTA-Ni resin for 20 minutes at room temperature to allow binding of the histidine-tagged peptide to the NTA-Ni resin. The resin was then pelleted and the supernatant was removed. The resin was washed in buffer A. The peptide bound resin was then divided into two aliquots. A first aliquot was mixed with 100 μL human recombinant endostatin (0.1 mg/mL in 10 mM sodium phosphate buffer, 100 mM sodium chloride, pH 7.4, diluted from stock endostatin, Calbiochem 324746). A second aliquot was mixed with 100 μL human angiostatin, Calbiochem 176700(0.1 mg/mL in 10 mM sodium phosphate buffer, 100 mM sodium chloride, pH 7.4. The beads and angiogenesis inhibitors were incubated on ice 15-20 minutes to allow binding to the bead-immobilized peptide. The resin was then pelleted. The supernatants were removed and reserved for analysis by SDS PAGE (flow through). The beads were then washed 2× with 10 mM sodium phosphate buffer. The histidine-tagged peptides and any immobilized drug were eluted by the addition of 4 aliquots of an imidazole (250 mM) wash.
# [2] = biological target: T1, irrelevant FLR-peptide; assay: Gold colloid colour-change binding assay, control colloids (Example 6); conditions: endostatin 0.1 mg/mL; wells A3, A4
# Method: (§1) 40 μM NTA gold colloids were prepared which presented the His-tagged RGD peptide (Sequence ID No.1, see Table 1). These colloids were mixed with endostatin (0.1 mg /mL) and turned blue, indicating binding of endostatin to the GRGDS peptide (A1, A2, FIG. 6). Control colloids presenting an irrelevant FLR-peptide (Sequence ID #2, see table 1) remained pink (wells A3, A4). At the highest concentration of vitronectin (0.1 mg /ml), the endostatin—GRGDS interaction is disrupted, and the well remains pink (B1). At lower concentrations of vitronectin, the endostatin—GRDS interaction is not affected and the wells turn blue (B2-B5).
# [3] = test system: RGD-peptide-bound colloids; assay: Colloid/colloid linkage colour-change assay on NTA colloids (Example 7); format: binding; conditions: 100 ul or 50 ul protein; room temperature, after approximately 15 minutes
# Method: (§2) 600 microliters colloids, derivatized with a self-assembled monolayer that presents nitrilo tri-acetic acid, NTA (for the capture of histidine-tagged proteins), was mixed with 60 microliters of 500 micromolar histidine-tagged RGD-motif-containing peptide. 600 microliters of a second set of NTA-Ni presenting colloids was mixed with 60 ul of a 500 uM solution of histidine-tagged GST, an irrelevant protein, as a negative control. Colloids were spun down and resuspended in phosphate buffer to remove residual unbound protein or peptide. Endostatin and Angiostatin, two proteins implicated in angiogenesis and suspected of binding to regions of vitronectin, such as the RGD peptide, were prepared by dialysis into phosphate-buffered saline solution and then 1:10 dilution into PBS from a stock concentration of 1 mg/mL.
# (§3) 400 ul phosphate buffer (pH 7.4), 200 ul either RGD-bound colloids or GST-bound colloids, and either 100 ul endostatin or angiostatin, 50 ul endostatin or angiostatin/50 ul phosphate buffer, or 100 ul phosphate buffer (as a negative control) were added to each well of a crystallization dish. Color change was monitored over time at room temperature. […] The histidine-tagged proteins were then eluted using imidazole, and the samples were analyzed by SDS-PAGE.
# [4] = test system: GRGDS peptide; assay: Gold colloid colour-change binding assay, RGD peptide colloids (Example 6); conditions: endostatin 0.1 mg/mL; wells A1, A2
# Method: as §1
# [5] = test system: resin-immobilized RGD peptide; assay: NTA-Ni agarose resin binding verified by SDS-PAGE (Example 7); conditions: imidazole elution
# Method: as §3, with “The color change was more pronounced in the well that contained 100 ul endostatin than in the well that contained 50 ul endostatin/50 ul phosphate buffer. […] The results were verified by gel electrophoresis. The RGD peptide and histidine-tagged GST were bound to a small amount of NTA-Ni agarose resin at saturating concentration. Endostatin was incubated with the resin and allowed to bind to the protein on the resin. The” for “The”
# [6] = test system: GST-bound colloids; assay: Colloid/colloid linkage colour-change assay on NTA colloids, negative control protein (Example 7); format: binding; conditions: 100 ul or 50 ul protein; room temperature
# Method: as §2, §3
# [7] = test system: resin-immobilized GST; assay: NTA-Ni agarose resin binding verified by SDS-PAGE, control (Example 7); conditions: imidazole elution
# Method: as §3, with “The color change was more pronounced in the well that contained 100 ul endostatin than in the well that contained 50 ul endostatin/50 ul phosphate buffer. […] The results were verified by gel electrophoresis. The RGD peptide and histidine-tagged GST were bound to a small amount of NTA-Ni agarose resin at saturating concentration. Endostatin was incubated with the resin and allowed to bind to the protein on the resin. The” for “The”
# His-tagged GRGDS motif peptide, sequence (as listed by the source): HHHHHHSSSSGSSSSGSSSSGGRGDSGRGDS
# resin-immobilized RGD peptide, sequence (as listed by the source): as above
# GRGDS peptide, sequence (as listed by the source): as above
molecule,measurement,setting,value
B1,co-elution with GRGDS motif peptide (SDS PAGE),[1],co-eluted
same,colloid colour (binding to FLR peptide),[2],remained pink
same,colour change of RGD-peptide-bound colloids,[3],color change from red to blue
same,colloid colour (binding to GRGDS peptide),[4],turned blue
same,binding to resin-immobilized RGD peptide (SDS-PAGE),[5],bound
same,colour change of GST-bound colloids,[6],No color change
same,binding to resin-immobilized GST (SDS-PAGE),[7],did not bind
B2,co-elution with GRGDS motif peptide (SDS PAGE),[1],did not
same,colour change of RGD-peptide-bound colloids,[3],No color change
same,colour change of GST-bound colloids,[6],No color change
